Bridges are numbered along the chain shown (N, C = ends). [ ]: non-standard residue; d: D form. The star is where a group is joined. Trp(7-Ph) = N[C@@H](Cc1c[nH]c2c(-c3ccccc3)cccc12)C(=O)O; Trp(7-Me) = Cc1cccc2c(C[C@H](N)C(=O)O)c[nH]c12; 2Nal = N[C@@H](Cc1ccc2ccccc2c1)C(=O)O; d(αMeF) = C[C@@](N)(Cc1ccccc1)C(=O)O; AEF = NCCOc1ccc(C[C@H](N)C(=O)O)cc1; αMeF = C[C@](N)(Cc1ccccc1)C(=O)O; β3hF = N[C@H](CC(=O)O)Cc1ccccc1; Pen = CC(C)(S)[C@H](N)C(=O)O; αMeK = C[C@](N)(CCCCN)C(=O)O; 3Quin = not defined here; Isobutyryl = CC(C)C(=O)*; dDap = NC[C@@H](N)C(=O)O; Thp = NC1(C(=O)O)CCOCC1; Abu = CC[C@H](N)C(=O)O; Hexanoyl = CCCCCC(=O)*; Aib = CC(C)(N)C(=O)O; Propionyl = CCC(=O)*; Tfa = O=C(C(F)(F)F)*; Butyryl = CCCC(=O)*; Ahx = NCCCCCC(=O)O
T1: human IL-23R (interleukin-23 receptor) (human, UniProt Q5VWK5 24-629)
T1 sequence (looked up): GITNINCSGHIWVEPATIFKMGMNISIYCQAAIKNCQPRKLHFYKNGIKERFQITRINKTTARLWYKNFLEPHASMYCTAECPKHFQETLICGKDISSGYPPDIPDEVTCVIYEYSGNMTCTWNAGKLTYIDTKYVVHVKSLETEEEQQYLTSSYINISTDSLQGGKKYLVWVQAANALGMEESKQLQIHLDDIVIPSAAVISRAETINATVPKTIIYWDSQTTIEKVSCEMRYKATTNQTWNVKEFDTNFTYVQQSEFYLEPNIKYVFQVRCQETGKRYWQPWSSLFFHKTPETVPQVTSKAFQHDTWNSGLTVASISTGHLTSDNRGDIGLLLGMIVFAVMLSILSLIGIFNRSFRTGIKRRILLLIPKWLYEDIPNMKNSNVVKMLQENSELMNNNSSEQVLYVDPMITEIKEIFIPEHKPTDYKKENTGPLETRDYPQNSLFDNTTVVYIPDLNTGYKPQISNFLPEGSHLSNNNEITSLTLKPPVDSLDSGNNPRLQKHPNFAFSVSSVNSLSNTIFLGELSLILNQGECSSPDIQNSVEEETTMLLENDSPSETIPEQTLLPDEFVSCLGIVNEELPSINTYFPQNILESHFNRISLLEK


Target: T1, human IL-23R (interleukin-23 receptor)
Assay: cell-based or functional assay

Binder	PBMC pSTAT3 IC50 (nM)	pStat3 HTRF (nM), IC50, DB cells IL23R pSTAT3 cell assay
Ac-[dR][Pen]QTWQ[Pen][AEF][2Nal][Thp]K(Hexanoyl)NF-NH2 (disulfide 2-7; SMILES CCCCCC(=O)NCCCC[C@H](NC(=O)C1(NC(=O)[C@H](Cc2ccc3ccccc3c2)NC(=O)[C@H](Cc2ccc(OCCN)cc2)NC(=O)[C@H]2NC(=O)[C@H](CCC(N)=O)NC(=O)[C@H](Cc3c[nH]c4ccccc34)NC(=O)[C@H]([C@@H](C)O)NC(=O)[C@H](CCC(N)=O)NC(=O)[C@@H](NC(=O)[C@@H](CCCNC(=N)N)NC(C)=O)C(C)(C)SSC2(C)C)CCOCC1)C(=O)N[C@@H](CC(N)=O)C(=O)N[C@@H](Cc1ccccc1)C(N)=O) [Compound No. 59]	67 nM	
Ac-[dR][Pen]QTWQ[Pen][AEF][2Nal][Thp]K(Isobutyryl)NF-NH2 (disulfide 2-7; SMILES CC(=O)N[C@H](CCCNC(=N)N)C(=O)N[C@@H]1C(=O)N[C@@H](CCC(N)=O)C(=O)N[C@@H]([C@@H](C)O)C(=O)N[C@@H](Cc2c[nH]c3ccccc23)C(=O)N[C@@H](CCC(N)=O)C(=O)N[C@H](C(=O)N[C@@H](Cc2ccc(OCCN)cc2)C(=O)N[C@@H](Cc2ccc3ccccc3c2)C(=O)NC2(C(=O)N[C@@H](CCCCNC(=O)C(C)C)C(=O)N[C@@H](CC(N)=O)C(=O)N[C@@H](Cc3ccccc3)C(N)=O)CCOCC2)C(C)(C)SSC1(C)C) [Compound No. 61]	70 nM	
Ac-[Pen]NT[Trp(7-Ph)]K(Ac)[Pen][AEF][3Quin][Thp]EN[Aib]-NH2 (disulfide 1-6; reading uncertain) [Compound No. 62]		0.413 nM
Ac-[dR][Pen]QTWQ[Pen][AEF][2Nal][Thp]K(Butyryl)NF-NH2 (disulfide 2-7; SMILES CCCC(=O)NCCCC[C@H](NC(=O)C1(NC(=O)[C@H](Cc2ccc3ccccc3c2)NC(=O)[C@H](Cc2ccc(OCCN)cc2)NC(=O)[C@H]2NC(=O)[C@H](CCC(N)=O)NC(=O)[C@H](Cc3c[nH]c4ccccc34)NC(=O)[C@H]([C@@H](C)O)NC(=O)[C@H](CCC(N)=O)NC(=O)[C@@H](NC(=O)[C@@H](CCCNC(=N)N)NC(C)=O)C(C)(C)SSC2(C)C)CCOCC1)C(=O)N[C@@H](CC(N)=O)C(=O)N[C@@H](Cc1ccccc1)C(N)=O) [Compound No. 58]	35 nM	
Ac-[Pen]NT[Trp(7-Ph)]K(Ac)[Pen][AEF][3Quin][αMeK]K(Ac)N[Aib]-NH2 (disulfide 1-6; reading uncertain) [Compound No. 63]		1.02 nM
Ac-[dR][Pen]QTWQ[Pen][AEF][2Nal][Thp]K(Tfa)NF-NH2 (disulfide 2-7; SMILES CC(=O)N[C@H](CCCNC(=N)N)C(=O)N[C@@H]1C(=O)N[C@@H](CCC(N)=O)C(=O)N[C@@H]([C@@H](C)O)C(=O)N[C@@H](Cc2c[nH]c3ccccc23)C(=O)N[C@@H](CCC(N)=O)C(=O)N[C@H](C(=O)N[C@@H](Cc2ccc(OCCN)cc2)C(=O)N[C@@H](Cc2ccc3ccccc3c2)C(=O)NC2(C(=O)N[C@@H](CCCCNC(=O)C(F)(F)F)C(=O)N[C@@H](CC(N)=O)C(=O)N[C@@H](Cc3ccccc3)C(N)=O)CCOCC2)C(C)(C)SSC1(C)C) [Compound No. 60]	44 nM	
Ac-[dR][Pen]QTWQ[Pen][AEF][2Nal][Thp]K(Propionyl)N[Thp]-NH2 (disulfide 2-7; SMILES CCC(=O)NCCCC[C@H](NC(=O)C1(NC(=O)[C@H](Cc2ccc3ccccc3c2)NC(=O)[C@H](Cc2ccc(OCCN)cc2)NC(=O)[C@H]2NC(=O)[C@H](CCC(N)=O)NC(=O)[C@H](Cc3c[nH]c4ccccc34)NC(=O)[C@H]([C@@H](C)O)NC(=O)[C@H](CCC(N)=O)NC(=O)[C@@H](NC(=O)[C@@H](CCCNC(=N)N)NC(C)=O)C(C)(C)SSC2(C)C)CCOCC1)C(=O)N[C@@H](CC(N)=O)C(=O)NC1(C(N)=O)CCOCC1) [Compound No. 57]	18 nM	

Next, values leading:

PBMC pSTAT3 IC50 (nM)	pStat3 HTRF (nM), IC50, DB cells IL23R pSTAT3 cell assay	Binder
	1.22 nM	Ac-[Pen]NT[Trp(7-Me)]K(Ac)[Pen][AEF][2Nal][αMeK]K(Ac)N[Aib][Ahx]-NH2 (disulfide 1-6; SMILES CC(=O)NCCCC[C@@H]1NC(=O)[C@H](Cc2c[nH]c3c(C)cccc23)NC(=O)[C@H]([C@@H](C)O)NC(=O)[C@H](CC(N)=O)NC(=O)[C@@H](NC(C)=O)C(C)(C)SSC(C)(C)[C@@H](C(=O)N[C@@H](Cc2ccc(OCCN)cc2)C(=O)N[C@@H](Cc2ccc3ccccc3c2)C(=O)N[C@@](C)(CCCCN)C(=O)N[C@@H](CCCCNC(C)=O)C(=O)N[C@@H](CC(N)=O)C(=O)NC(C)(C)C(=O)NCCCCCC(N)=O)NC1=O) [Compound No. 70]
	3.39 nM	Ac-[Pen]NT[Trp(7-Me)]K(Ac)[Pen][AEF][2Nal][αMeK]K(Ac)N[Aib][β3hF]-NH2 (disulfide 1-6; SMILES CC(=O)NCCCC[C@@H]1NC(=O)[C@H](Cc2c[nH]c3c(C)cccc23)NC(=O)[C@H]([C@@H](C)O)NC(=O)[C@H](CC(N)=O)NC(=O)[C@@H](NC(C)=O)C(C)(C)SSC(C)(C)[C@@H](C(=O)N[C@@H](Cc2ccc(OCCN)cc2)C(=O)N[C@@H](Cc2ccc3ccccc3c2)C(=O)N[C@@](C)(CCCCN)C(=O)N[C@@H](CCCCNC(C)=O)C(=O)N[C@@H](CC(N)=O)C(=O)NC(C)(C)C(=O)N[C@H](CC(N)=O)Cc2ccccc2)NC1=O) [Compound No. 71]
	7 nM	Ac-[Pen]NT[Trp(7-Me)]K(Ac)[Pen][AEF][2Nal][αMeK]K(Ac)N[dL][αMeF]-NH2 (disulfide 1-6; SMILES CC(=O)NCCCC[C@@H]1NC(=O)[C@H](Cc2c[nH]c3c(C)cccc23)NC(=O)[C@H]([C@@H](C)O)NC(=O)[C@H](CC(N)=O)NC(=O)[C@@H](NC(C)=O)C(C)(C)SSC(C)(C)[C@@H](C(=O)N[C@@H](Cc2ccc(OCCN)cc2)C(=O)N[C@@H](Cc2ccc3ccccc3c2)C(=O)N[C@@](C)(CCCCN)C(=O)N[C@@H](CCCCNC(C)=O)C(=O)N[C@@H](CC(N)=O)C(=O)N[C@H](CC(C)C)C(=O)N[C@@](C)(Cc2ccccc2)C(N)=O)NC1=O) [Compound No. 68]
	5.52 nM	Ac-[Abu]QT[Trp(7-Ph)]K(Ac)C[AEF][2Nal][αMeK]K(Ac)N[αMeF]-NH2 (thioether 1-6) [Compound No. 67]
	52.6 nM	Ac-[Pen]N[dDap][Trp(7-Me)]K(Ac)[Pen][AEF][2Nal][αMeK]K(Ac)N[dL]-NH2 (disulfide 1-6; SMILES CC(=O)NCCCC[C@@H]1NC(=O)[C@H](Cc2c[nH]c3c(C)cccc23)NC(=O)[C@@H](CN)NC(=O)[C@H](CC(N)=O)NC(=O)[C@@H](NC(C)=O)C(C)(C)SSC(C)(C)[C@@H](C(=O)N[C@@H](Cc2ccc(OCCN)cc2)C(=O)N[C@@H](Cc2ccc3ccccc3c2)C(=O)N[C@@](C)(CCCCN)C(=O)N[C@@H](CCCCNC(C)=O)C(=O)N[C@@H](CC(N)=O)C(=O)N[C@H](CC(C)C)C(N)=O)NC1=O) [Compound No. 72]
	2.75 nM	Ac-[Pen]NT[Trp(7-Me)]K(Ac)[Pen][AEF][2Nal][αMeK]K(Ac)N[dL][d(αMeF)]-NH2 (disulfide 1-6; SMILES CC(=O)NCCCC[C@@H]1NC(=O)[C@H](Cc2c[nH]c3c(C)cccc23)NC(=O)[C@H]([C@@H](C)O)NC(=O)[C@H](CC(N)=O)NC(=O)[C@@H](NC(C)=O)C(C)(C)SSC(C)(C)[C@@H](C(=O)N[C@@H](Cc2ccc(OCCN)cc2)C(=O)N[C@@H](Cc2ccc3ccccc3c2)C(=O)N[C@@](C)(CCCCN)C(=O)N[C@@H](CCCCNC(C)=O)C(=O)N[C@@H](CC(N)=O)C(=O)N[C@H](CC(C)C)C(=O)N[C@](C)(Cc2ccccc2)C(N)=O)NC1=O) [Compound No. 69]
	51.1 nM	Ac-[Pen]N[dK][Trp(7-Me)]K(Ac)[Pen][AEF][2Nal][αMeK]K(Ac)N[dL]-NH2 (disulfide 1-6; SMILES CC(=O)NCCCC[C@@H]1NC(=O)[C@H](Cc2c[nH]c3c(C)cccc23)NC(=O)[C@@H](CCCCN)NC(=O)[C@H](CC(N)=O)NC(=O)[C@@H](NC(C)=O)C(C)(C)SSC(C)(C)[C@@H](C(=O)N[C@@H](Cc2ccc(OCCN)cc2)C(=O)N[C@@H](Cc2ccc3ccccc3c2)C(=O)N[C@@](C)(CCCCN)C(=O)N[C@@H](CCCCNC(C)=O)C(=O)N[C@@H](CC(N)=O)C(=O)N[C@H](CC(C)C)C(N)=O)NC1=O) [Compound No. 73]
